Results on one molecule are retold here after paper PMC4887914, “The Sp1-mediaded allelic regulation of MMP13 expression by an ESCC susceptibility SNP rs2252070”.

This data set deals with Sp1 (UniProt P08047 2-785). Briefly: EMSA; recombinant Sp1; supershift with Sp1 antibody; LightShift Chemiluminescent EMSA kit (Pierce), 25 °C, 20 min, 6% PAGE; 100-fold unlabeled competitor; buffer, salt and pH not stated. The conditions noted are these: protein: commercial; label: 3' biotin; blunt. On the technique in general: Mobility shift assays separate free from complexed probe on a gel.
Sp1, sequence (P08047 2-785): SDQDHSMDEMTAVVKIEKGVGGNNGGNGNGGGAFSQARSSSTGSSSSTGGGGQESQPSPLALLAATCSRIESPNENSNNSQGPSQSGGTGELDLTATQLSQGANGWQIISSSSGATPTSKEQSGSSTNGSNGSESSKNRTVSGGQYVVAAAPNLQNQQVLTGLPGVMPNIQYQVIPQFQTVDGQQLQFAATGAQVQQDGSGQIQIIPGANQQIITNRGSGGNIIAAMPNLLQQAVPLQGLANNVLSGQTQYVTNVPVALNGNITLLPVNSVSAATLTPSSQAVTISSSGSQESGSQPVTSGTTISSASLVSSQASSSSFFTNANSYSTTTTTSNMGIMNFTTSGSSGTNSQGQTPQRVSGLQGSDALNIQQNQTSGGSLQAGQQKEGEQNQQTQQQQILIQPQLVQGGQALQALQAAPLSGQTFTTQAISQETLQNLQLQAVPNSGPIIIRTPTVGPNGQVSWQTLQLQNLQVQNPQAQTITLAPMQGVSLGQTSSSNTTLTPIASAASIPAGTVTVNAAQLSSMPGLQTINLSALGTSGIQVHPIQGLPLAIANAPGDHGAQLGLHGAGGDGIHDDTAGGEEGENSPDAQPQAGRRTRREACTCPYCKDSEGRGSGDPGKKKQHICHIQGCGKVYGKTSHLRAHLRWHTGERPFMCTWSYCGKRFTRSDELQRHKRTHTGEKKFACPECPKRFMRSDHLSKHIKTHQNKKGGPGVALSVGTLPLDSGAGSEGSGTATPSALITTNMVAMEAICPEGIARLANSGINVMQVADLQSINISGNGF

B1: MMP13 rs2252070G probe (dsDNA)
DNA 1: CCTTCAAGTGACTGGGAAGTGGAAACCT
DNA 2: AGGTTTCCACTTCCCAGTCACTTGAAGG
As for B1, the binding result was “binds”.
